Data reported in article PMC4263517.

Target: Hfq (Pseudomonas aeruginosa (PAO1?)) (UniProt Q9HUM0)
Assay: EMSA
Settings: biotinylated UTP 1:3 to unlabeled UTP; 50 mM Tris-HCl pH 7.5, 250 mM NaCl, 250 mM KCl (Hfq annealing buffer); RNA renatured 80 C 1 min; room temperature 20 min; 7.5% TGX native gel

Sequence of Hfq (Pseudomonas aeruginosa (PAO1?)) (Q9HUM0 whole entry): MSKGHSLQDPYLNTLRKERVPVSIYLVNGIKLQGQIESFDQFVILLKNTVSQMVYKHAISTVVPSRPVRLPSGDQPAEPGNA

“AACUGGUCGCGAGAUCAGCCGGUAAGCUGAGAGACCCACGCAGUCGGACUCUUCAGAUUAUCUCCUCAUCAGGCUAAUCACGGUUUUUGACCCGGCACUUUGCCGGGUCUUUUUUUGCCUGCGAUUCGGCCGGAGACGACCGUUCAUCGGCUGGCGAUGGAAUGAAUGAGAACCGGCUUGACCUGAUAAUGAGAAUAGUUAUUAUUACACCAACUGGUCGCGAGGCCAGCAGGUAAGCUGAGAGACCAAGCAGUCGGACUCUUCAGAUUAUCUCCUCAUCAGGCUAAUCACGGUUUCGACCCGGCACUUUGCCGGGUCUUUUUUU [PrrH sRNA]” gave a binding of 11 ng/µL.
